In PMC5999986:

Biological target: DosR (DosRwt) (Mycobacterium tuberculosis, UniProt P9WMF9 1-217)
Experiment: EMSA; 4, 8, 16 uM protein; 20 mM MgCl2; […]; ITC: 20 mM Tris pH 8.0, 200 mM NaCl, 25 C, […]
Conditions: protein: recombinant; tags: His6 (N-terminal from pET28a NdeI/HindIII; C-terminal His6 encoded by primer PTD2 in pT7-dosR); chain copies: 2; label: none (ethidium bromide stain); blunt

B1: 20-bp DosR regulon consensus DNA (EM1/EM2) (dsDNA)
DNA 1: TTGGGGACTAAAGTCCCTAA
DNA 2: TTAGGGACTTTAGTCCCCAA
binding result: binds
